Here are results for 21 molecules from US20210163601A1 (Amgen, published 2021).

The chains are these.
T1: Soluble ASGR-1 (recombinant, biotinylated) (human, UniProt P07306 62-291, limits assumed, biotinylated)
T1 construct: also called recombinant, soluble ASGR-1 biotinylated protein
T1 sequence: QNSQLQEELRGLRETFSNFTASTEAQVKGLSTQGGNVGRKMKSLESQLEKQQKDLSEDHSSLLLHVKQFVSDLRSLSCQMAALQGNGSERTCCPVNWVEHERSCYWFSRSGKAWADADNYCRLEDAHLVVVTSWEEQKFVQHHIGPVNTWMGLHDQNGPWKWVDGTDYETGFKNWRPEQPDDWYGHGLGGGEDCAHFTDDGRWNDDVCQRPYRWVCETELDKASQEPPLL

B1: 194A4 (antibody, V domains shown)
VH: QVQLVQSGTEVKKPGASLKVSCKASGYTFTVYYLNWVRQAPGQGLEWMGWINPNSGGTNYAQKFQGRVTMTRDTSISTAYMELSRLRSDDTAVYYCARGYDILTGWGQGTLVTVSS
VL: EIVLTQSPGTLSLSPGERATLSCRASRGVSNIYLAWYQQKPGQAPRLLIYGASNRATGIPDRFSGSGSGTDFTLTISRLEPEDFAVYYCQHNDYSMFTFGPGTKVDIK
notes: Tested as hybridoma supernatant
B2: 7G4 (antibody, V domains shown)
VH: QVQLVESGGGVVQPGRSLRLSCAASGFTFNNYVMHWVRQAPGKGLEWVAVIWYDGSNKYYADSVKGRFTISRDNSKNTLYLQMTSLRAEDTAVYYCAREKYSSNWYDYGMDVWGQGTTVTVSS
VL: DIQMTQSPSSLSASVGDRVTITCRASQGIRNDLGWYQQRPGKAPKRLIYAASSLQSGVPSRFSGSGSGTEFTLTISSLQPEDSATYYCLHQYSYPRTFGQGTKVEIK
notes: as for B1
B3: 5E5 (antibody, V domains shown)
VH: QVQLVESGGGVVQPGRSLRLSCAASGFTFSNYVMHWVRQAPGKGLEWVAVIWYDGSNKYYADSVKGRFTISRDNSKNTLYLQMNSLRAEDTAVYYCTREVYSSGWYDYGMDVWGQGTTVTVSS
VL: DIQMTQSPSSLSASVGDRVTITCRASQGIRNDLGWYQQKPGKAPKRLIYAASSLQSGVPSRFSGSGSGTEFTLTISSLQPEDFATYYCLQHYSYPRTFGQGTKVEVK
notes: as for B1
B4: 22G5 (antibody, V domains shown)
VH: EVQLLESGGGLVQPGGSLRLSCAASGFTFSSYAMNWVRQAPGMGLEWVSVISRSGGYTYYADSVKGRFTISRDNSKNTLYLQMNSLRAEDTAVYYCASRLAVAGSEAFDIWGQGTLVTVSS
VL: DIQMTQSPSSLSASVGDRVTITCRASQNISSYLNWYQQKQGKAPKLLIYAASSLQNGVPSRFSGRGSGTDFTLTISSLQPEDFATYYCQQSYRTPLFTFGPGTKVDFK
notes: as for B1
B5: 4H6 (antibody, V domains shown)
VH: QVQLVQSGAEVKKPGASVKVSCKASGYTFTDYYLHWVRQAPGQGLEWMGWIHPNSGGTNYAQKFQGRVTMTRDTSISTAYMGLSSLRSDDTAVYYCARDGTSSFDYWGQGTLVTVSS
VL: DIQMTQSPSSVSASVGDRVTITCRASQGISRWLAWYQQKPGKAPKLLIYGASSLQSGVPSRFSGSGSGTDFTLTISSLQPEDFAIYYCQQANSFPFTFGPGTKVDIK
notes: as for B1
B6: 194C1 (antibody, V domains shown)
VH: QVQLVESGGGVVQPGRSLRLSCAASGFTFSSYGMHWVRQAPGKGLEWVAVIWYDGSNEHYADSVKGRFTISRDNSKNTLYLQMNSLRAEDTAVYYCARNRGVGYYGLDVWGQGTTVTVSS
VL: DIQMTQSPSSLSASVGDRVTITCRASQGISNYLAWFQQKPGKAPKSLIYAASSLQSGVPSKFSGSGSGTDFTLTISSLQPEDFATYYCLHYLTYPLTFGGGTKVEIK
notes: as for B1
B7: 190F8 (antibody, V domains shown)
VH: QVQLVESGGGVVQPGRSLRLSCAASGFTFSTYGMHWVRQAPGKGLEWVAVIWYDGSNKNYADSVKGRFTISRDNSKNTLYLQMNSLRAEDTAVYYCARDQGVGYDGLDVWGQGTTVTVSS
VL: DIQMTQSPSSLSASVGDRVTITCRTSQGIGNYLAWFQQKPGKAPKSLLYKASSLQSGVPSKFSGSGSGTDFTLTISSLQPEDFATYYCQQYMTYPLTFGGGTKVEIK
notes: as for B1
B8: 197G3 (antibody, V domains shown)
VH: QVQLVESGGGVVQPGRSLRLSCVASGFTFSSHGMHWVRQAPGKGLEWVAVIWYDGSNKNYADSVKGRFTISRDNSKNTLYLQMNSLRAEDTAVYYCARDPSVGYDGMDVWGQGTTVTVSS
VL: DIQMTQSPSSLSASVGDRVTITCRASQGIGNHLAWFQQKPGKAPKSLIYAASSLQSGVPSKFSGSRSGTDFSLTISSLQPEDFATYYCQQYSNYPVTFGPGTKVDIK
notes: as for B1
B9: 198G3 (antibody, V domains shown)
VH: QVQLVESGGGVVQPGRSLKLSCAASGFTFSTYGMHWVRQAPGKGLEWVAVIWYDGTNKNYADSVKGRFTISRDNSKNTLCLQMNSLRAEDTAVYYCARDQGVGYDGLDVWGQGTTVTVSS
VL: DIQMAQSPSSLSASVGDRVTITCRTSQGIGKYLAWFQQKPGKAPKSLLYKASSLQGGVPSKFSGSGSGTDFTLTISSLQPEDFATYYCQQYMTYPLTFGGGTKVEIK
notes: as for B1
B10: 191G10 (antibody, V domains shown)
VH: QVQLVESGGGVVQPGRSLRLSCAASGFTFSSYGMHWVRQAPGKGLEWVAVIWYDGSNKNYADSVKGRFTISRDNSKNTLYLQMNSLRAEDTAVYYCARDQGVGYDGLDVWGQGTTVTVSS
VL: DIQMTQSPSSLSASVGDRVTITCRTSQGIGKYLAWFQQKPGKAPKSLLYKVSSLQSGVPSKFSGSGSGTDFTLTISSLQPEDFATYYCQQYMTYPLTFGGGTKVEIK
notes: as for B1
B11: 191G1 (antibody, V domains shown)
VH: QVQLVESGGGVVQPGRSLRLSCAASGFTFSSYGMHWVRQAPGKGLEWVAVIWYDGSNEHYADSVKGRFTISRDNSKNTLYLQMNSLRAEDTAVYYCARDRGVGYYGLDVWGQGTTVTVSS
VL: DIQMTQSPSSLSASVGDRVTITCRASQGISNYLAWFQQKPGKAPKSLIYAASSLQSGVPSKFSGSGSGTDFTLTISSLQPEDFATYYCQHYLTYPLTFGGGTKVEIK
notes: as for B1
B12: 48B12 (antibody, V domains shown)
VH: EVQLLESGGGLVQPGGSLRLSCAASGFTFSSYAMNWVRQAPGKGLEWVSAISGRGGNTFYADSVKGRFTISRDNSKNTLYLQMNSLRAEDTAVYYCAKRETYNWNYEGFDYWGQGTLVTVSS
VL: SYELTQPPSVSVSPGQTARITCSGDALPKKYAYWYQQKSGQAPVLVIYEDSKRPSGIPERFSGSSSGTMATLTISGAQVEDEADYYCNSTDSSGNHVVFGGGTKLTVL
notes: as for B1
B13: 4B1 (antibody, V domains shown)
VH: QVQLQESGPGLVKPSETLSLTCSVSGDSISSYSWSWIRQPAGKGLEWIGRIYTSGSTNYIPSLKSRITMSVDTSKKQFSLKLSSVTAADTAVYYCARDLKSSGCLFFDYWGQGTLVTVSS
VL: DIQMTQSPSSLSASVGDRVTITCRASHTIRTYLNWYQQKPGKAPKLLIYAASSLQSGVPSRINGSGSGTDFTLTITNLQPEDFATYYCQQSYNISFTFGPGTKVDIK
notes: as for B1
B14: 54E9 (antibody, V domains shown)
VH: QVQLVQSGAEVKKPGASVKVSCKASGYTFNSYGISWVRLAPGQGLEWMGWISAYNGNTKNAQKLQGRVTMTTDTSTSTAYMELRSLRSDDTAVYYCARHDFWSGYYKGMDVWGQGTTVTVSS
VL: not shown
notes: as for B1
B15: 25A4 (antibody, V domains shown)
VH: QVLLVQSGAEVKRPGASVKVSCKASGYTFTNYDINWVRQATGQGLEWMGWMYPNSGNTGYAQKFQGRVTMTRNTSISTAYMELSSLRSEDTAVYYCASSSGWYYFDYWGQGTLVTVSS
VL: DIVMTQFPDSLAVSLGERATIKCKSSQSVLYSSHNNNYLAWYQQKPGQPPKLLLYWASTRESGVPDRFSGSGSGTEFTLTISSLEAEDVAVYYCQQYYSTPPTFGQGTKVEIK
notes: as for B1
B16: 26C4 (antibody, V domains shown)
VH: QVQLVQSGAEVKKPGASVKVSCKASGYTFTNYDINWVRQASGQGLEWMGWMNPNSGNTGYAQRFQGRVTMTRNTSINTAYMELSSLRSEDTAVYYCASSSGWYYFDYWGQGTLVTVSS
VL: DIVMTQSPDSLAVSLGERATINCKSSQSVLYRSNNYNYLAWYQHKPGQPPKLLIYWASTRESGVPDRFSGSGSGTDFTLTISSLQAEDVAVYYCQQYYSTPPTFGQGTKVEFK
notes: as for B1
B17: 4A2 (antibody, V domains shown)
VH: QVQLVQSGTEVKKPGASVKVSCKASGYTFTNYDINWVRQATGQGLEWMGWMHPNSGNTGYAQKFQGRVTLTRNTSISTAYMELSSLRSEDTAVYYCASSSGWYYFDYWGQGTLVTVSS
VL: DIVMTQSPDSLAVSLGERATINCKSSQSILHSSNNNNYLAWFQQKPGQPPKLLLYWASTRESGVPDRFSGSGSGTDFTLTISSLQPEDVAVYYCQQYYNTPVTFGPGTKVGIK
notes: as for B1
B18: 29H8 (antibody, V domains shown)
VH: QVQLVQSGAEVQKPGASVKVSCKASGYTFTNYDINWVRQATGQGLEWMGWMNPNSGNTGYAQRFQGRVTMTRNTSISAAYMELSSLRSEDTAVYYCASSSGWYYFDYWGQGTLVTVSS
VL: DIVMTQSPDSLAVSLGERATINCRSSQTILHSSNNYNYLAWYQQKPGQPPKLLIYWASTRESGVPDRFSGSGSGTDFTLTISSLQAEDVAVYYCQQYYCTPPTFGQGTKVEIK
notes: as for B1
B19: 75G3 (antibody, V domains shown)
VH: QVQLQQWGAGLLKPSETLSLTCAVYGGSLSGSYWSWIRQPPGKGLEWIGEINLSGSTNYNPSLKSRVTISVDTSKSQFSLTLRSVTAADTAVYYCARDYGGLDYWGQGTLVTVSS
VL: EIVLTQSPGTLSLSPGERATLSCRARQNVDSSYLAWYQQKPGQAPRLLIYGASSRATGIPDRFSGSGSGTDFTLTISRLEPEDFAVFYCQQYERSPWTFGQGTKVEIK
notes: as for B1
B20: 184E7 (antibody, V domains shown)
VH: QVQLVQSGAEVKTPGASVKVSCRASGYTFTSYNMHWVRQVPGQGLEWMGWINPNNGGSNYTQKFQGRVTMTRDTSISTAYMELSRLRSDDTAVYYCARKFGDWGQGTLVTVSS
VL: DIQMTQSPSSRSASIGERVTITCRASQGISNYLAWIQQKPGTAPKSLIYAASSLQSGVSSRFSGSGFGTDFTITISSVQREDFATYYCQQYNGYPFTFGHGTKVDIK
notes: as for B1
B21: 7E11 (antibody, V domains shown)
VH: QVQLVESGGGVVQPGRSLRLSCAASGFTFSSFGMHWVRQAPGKGLEWVAIIWHDGSNKYYADSVKGRFTISRDNSNNTLYLQMSSLRAEDTAVYYCARDLSMGGMDVWGQGTTVTVSS
VL: DIQMTQSPSSLSASVGDRVTIACRASQNIISYLNWYQQKPGKAPKFLIYTASSLQSGVPSRFSGSGSGTDFTLTISSLQPEDFAIYYCQQTYSTPLTFGGGTKVEIK
notes: as for B1

This assay has as its target T1, Soluble ASGR-1 (recombinant, …). Kind of assay: limiting antigen bead FACS; biotinylated soluble ASGR-1 coated at 2.5 ng/mL on LumAvidin beads.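 Further: hybridoma supernatants of ligand-competing antibodies bound to antigen-loaded beads, read by flow cytometry on an iQue Screener in calcium-containing buffer, higher fluorescence meaning stronger relative affinity.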
With B1, the “FACS Geomean” value came to 38900.
To B2 belongs 6800; to B3, 3280; to B4, 1080.
As to B5, the “FACS Geomean” value amounted to 2990.
Take B6: the “FACS Geomean” value came out at 16900.
Take B7: the “FACS Geomean” value came to 13900.
With B8, the “FACS Geomean” value turned out to be 17700.
The same measure for B9: 26000.
To B10 belongs 24200.
Regarding B11, the “FACS Geomean” value was determined as 9550.
For the molecule B12, the “FACS Geomean” value was 27000.
The same measure for B13: 10100; for B14: 6490; for B15: 18000.
The same measure for B16: 12000.
B17: the “FACS Geomean” value was 16600.
The same measure for B18: 12200; for B19: 35800; for B20: 40200.
The same measure for B21: 4660.
